Measured values: US11666658B2, “Rifamycin analogs and antibody-drug conjugates thereof” (Regeneron Pharmaceuticals, Inc., priority 2018, dated 2023)

Assays:
parental HEK293 cells = experiment: Electrochemiluminescence (ECL) antibody binding assay on cells, non-specific binding control; set-up: species or system human
Description: The ability of anti-MSR1 monoclonal antibodies to bind to human or monkey MSR1 expressing cells was determined using electrochemiluminescence (ECL) based detection.
Two cell lines overexpressing either human or monkey MSR1 were generated. To generate the human MSR1 overexpressing cell line, human embryonic kidney (HEK) 293 cells were engineered by transduction with hygromycin resistant lentiviral vector encoding full length human MSR1 (hMSR1, amino acids M1-L451 of accession number NP_619729.1) with a C-terminal Myc tag. The resulting cell line is referred to as HEK293.Myc.hMSR1. Similarly, to generate the monkey MSR1 overexpressing cell line, HEK293 cells were engineered by transfection with the geneticin resistant expression plasmid encoding full length monkey MSR1 (Macaca fascicularis, mfMSR1, amino acids M1-L451 of accession number XP_005562705.1). The resulting cell line is referred to as HEK293.mfMSR1 cells. To measure the ability of antibodies to bind to endogenously expressed human MSR1, THP-1 human monocytic cells were treated with 200 nM of phorbol 12-myristate 13-acetate (PMA; Sigma, Cat #P8139) for 72 hours to induce high MSR1 expression prior to antibody binding.
Luminescence intensity, measured in relative light units (RLU), was recorded to indicate the binding intensity of each antibody at the range of concentrations.

[1] = target: T1, MSR1 on differentiated THP-1 cells (Homo sapiens, UniProt P21757); experiment: Binding and internalization of cell-surface expressed MSR1 (confocal imaging); type: cell-based; settings: 10 μg/mL antibody
T1 construct: endogenously expressed human MSR1; endogenous in cells; host or cells: THP-1 cells treated with 200 nM PMA
T1 sequence (P21757 1-451): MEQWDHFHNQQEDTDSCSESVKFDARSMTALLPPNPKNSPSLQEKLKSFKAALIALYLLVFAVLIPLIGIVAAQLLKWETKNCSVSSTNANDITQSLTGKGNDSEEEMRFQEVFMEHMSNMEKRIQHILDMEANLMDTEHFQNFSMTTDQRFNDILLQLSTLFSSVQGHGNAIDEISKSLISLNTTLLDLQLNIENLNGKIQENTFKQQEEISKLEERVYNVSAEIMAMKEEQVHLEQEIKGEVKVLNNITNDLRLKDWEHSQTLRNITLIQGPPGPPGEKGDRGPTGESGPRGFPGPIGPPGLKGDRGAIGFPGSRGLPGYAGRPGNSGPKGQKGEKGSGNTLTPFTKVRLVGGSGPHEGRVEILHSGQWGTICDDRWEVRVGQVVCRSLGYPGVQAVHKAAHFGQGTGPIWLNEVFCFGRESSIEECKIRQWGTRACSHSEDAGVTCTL
Description: The THP-1 cells were allowed to differentiate for 4 days at 37° C. in 5% CO2. […] The remaining two plates were incubated at 37° C. for 1 hour followed by fixation and staining for 20 minutes using a solution of 4% PFA+5 μM DRAQ5 diluted in PBS (internalization plates). After fixation, all plates were washed once with PBS. […] The remaining plates were incubated with PBS only. Confocal images were acquired on the Opera Phenix (Perkin Elmer) at 40× magnification. […] The total binding at 4° C. (RFU values of 4° C. unquenched wells), total binding at 37° C.
For all calculations, background fluorescence from unstained wells was subtracted from every well. Total internalized RFU was calculated as follows: Total RFU of 37° C. unquenched samples—Surface RFU at 37° C. Surface RFU is defined as unquenched RFU at 37° C.-quenched RFU at 37° C.)/QE. QE (quenching efficiency) is defined as: 1-(Total RFU of 4° C. quenched sample/Total RFU of 4° C. unquenched sample). The % Internalization was determined from the following formula: (Total internalized RFU at 37° C./Total RFU at 37° C.)*100.

[2] = tested on: S. aureus MRSA strain NRS384; experiment: S. aureus IV disseminated infection mouse model (humanized MSR1 mice), kidney burden; type: in vivo, Staphylococcus aureus; settings: with vancomycin; for # of mice with S. aureus below the limit of detection: limit of detection = 250 cfu
Description: To test the efficacy of an anti-MSR1 Ab-antibiotic ncADC according to the disclosure in vivo, an intravenous disseminated infection model was utilized. S. aureus MRSA strain NRS384 was grown overnight in trypic soy broth (TSB) and sub-cultured to mid-logarithmic phase. Bacteria were then washed twice with PBS and resuspended in PBS at a concentration of 1.2×10^8 cfu/mL. […] From one to three days post infection, mice were treated with 110 mg/kg vancomycin subcutaneously twice daily wherein indicated. […] Mice were monitored for weight loss and body conditioning score throughout the infection. At four days post infection, mice were euthanized and the S. aureus kidney burden was quantified by tissue homogenization followed by enumeration of colony forming units through serial dilution in PBS and plating onto trypicase soy agar plates.

[3] = target: T2, human MSR1 extracellular domain (His9-hMSR1) (Homo sapiens, UniProt P21757); experiment: Surface plasmon resonance (Biacore 4000) binding kinetics, antibody-capture format, 25° C. and 37° C.; settings: analyte His9-hMSR1
T2 construct: human MSR1 extracellular domain expressed with a N-terminal nonahistidine tag; purchased R&D Systems 2708-MS
T2 sequence (P21757 77-451 limits assumed): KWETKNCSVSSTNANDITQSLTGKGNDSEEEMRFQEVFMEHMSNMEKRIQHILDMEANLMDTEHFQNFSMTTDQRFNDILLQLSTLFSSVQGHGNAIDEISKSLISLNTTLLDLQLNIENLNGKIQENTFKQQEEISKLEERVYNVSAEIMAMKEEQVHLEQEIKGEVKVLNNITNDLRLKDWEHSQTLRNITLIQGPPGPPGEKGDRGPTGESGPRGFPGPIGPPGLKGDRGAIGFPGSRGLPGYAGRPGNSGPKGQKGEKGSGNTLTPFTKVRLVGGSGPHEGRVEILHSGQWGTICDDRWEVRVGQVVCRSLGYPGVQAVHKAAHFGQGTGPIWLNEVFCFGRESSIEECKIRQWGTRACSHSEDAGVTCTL
Description: (§1) Binding affinities and kinetic constants of human anti-MSR1 antibodies for different MSR1 reagents were determined by real-time surface plasmon resonance (Biacore 4000). All binding studies were performed in 10 mM HEPES, 150 mM NaCl, 3 mM EDTA, and 0.05% v/v Surfactant Tween-20, pH 7.4 (HBS-ET) running buffer at 25° C. and 37° C.
(§2) The association rate (ka) and dissociation rate (kd) were determined by fitting the real-time binding sensorgrams to a 1:1 binding model with mass transport limitation using Scrubber 2.0 c curve-fitting software. Binding dissociation equilibrium constant (KD) and dissociative half-life (t½) were calculated from the kinetic rates as: […]

[4] = tested on: monkey MSR1 extracellular domain (HMM-mfMSR1); experiment: as above; settings: analyte HMM-mfMSR1
Description: as §1, §2

[5] = mAb or conjugate dose 0.1 mg/kg
[6] = 37° C., antibody-capture format
[7] = 37° C., antibody-capture format, * = no dissociation observed, kd manually fixed at 1.00E−05
[8] = Biacore, 25° C., * no dissociation observed, kd fixed at 1.00E−05

monkey MSR1 extracellular domain (HMM-mfMSR1), sequence (as listed by the source): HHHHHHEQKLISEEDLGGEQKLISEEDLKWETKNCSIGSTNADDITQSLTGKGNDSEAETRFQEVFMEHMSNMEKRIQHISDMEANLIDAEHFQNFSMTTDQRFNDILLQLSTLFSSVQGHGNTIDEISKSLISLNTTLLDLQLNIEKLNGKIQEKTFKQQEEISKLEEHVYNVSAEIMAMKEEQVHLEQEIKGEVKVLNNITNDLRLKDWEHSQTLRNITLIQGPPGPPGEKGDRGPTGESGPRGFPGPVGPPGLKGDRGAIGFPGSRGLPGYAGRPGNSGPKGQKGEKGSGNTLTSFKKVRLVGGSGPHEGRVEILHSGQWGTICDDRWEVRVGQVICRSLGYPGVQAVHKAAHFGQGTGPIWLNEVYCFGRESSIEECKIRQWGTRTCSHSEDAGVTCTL

B1: H1H21234N-N297Q: "An anti-MSR1 antibody H1H21234N containing a N297Q mutation, which eliminates N-linked glycosylation of the Fc at this site" (antibody, V domains shown)
VH: QVQLQESGPGLVKPSETLSLTCTVTGGSISRNYWSWIRQPPGKGLEWIGYIYYSGSIDYNPSLKSRVTISVDTSKNQFSLKLSSMTAADTAVYYCARDRWNWKYGMDVWGQGTTVIVSS
VL: EIVLTQSPGTLSLSPGERATLSCRASQTVRNNYLAWYHQKPGQAPRLLIYGASSRATGIPDRFSGSGSGTDFTLTISRLEPEDFTVYYCHQYGNSPWTFGQGTKMEIKR
B1 was tested, and the “Ratio of 11 nM Antibody Binding Signal (RLU) to isotype control, HEK293” value (parental HEK293 cells) was 9, the “Total Binding at 4° C.” value ([1]; 4° C.) was 1953248 and the “% Internalization” value ([1]; 37° C.) was 13.3%. The “Total Binding at 37° C.” value ([1]; 37° C.) was 5451125, the “Total Internalized RFU” value ([1]; 37° C.) was 722651 RFU and the Average cfu/kidney pair [2, 5] was 2.43E+05 cfu/kidney pair. For the same molecule, the “# of mice with S. aureus below the limit of detection” value [2, 5] was 0/6, the Average cfu/kidney pair ([2]; mAb or conjugate dose 1 mg/kg) was 1.55E+05 cfu/kidney pair and the “# of mice with S. aureus below the limit of detection” value ([2]; mAb or conjugate dose 1 mg/kg) was 4/8. For the same molecule, the ka [3, 6] was 787000 M⁻¹ s⁻¹, the kd [3, 7] was 1.00E−05* s^−1 and the ka ([3]; Biacore, 25° C.) was 497000 M⁻¹ s⁻¹. The kd [3, 8] was 1.00E−05* s^−1, the ka [4, 6] was 750000 M⁻¹ s⁻¹ and the kd [4, 7] was 1.00E−05* s^−1. The ka ([4]; Biacore, 25° C.) was 408000 M⁻¹ s⁻¹ and the kd [4, 8] was 1.95e-05 s⁻¹.
